This assay has as its target Recombinant spike, SARS-CoV-2 stabilized protein (BEI Resources NR-52724) (SARS-CoV-2) (UniProt P0DTC2). Description: BLI.

pKd: −log10 of the molar value.

recombinant human GAPDH (glyceraldehyde-3-phosphate dehydrogenase), sequence (P04406 whole entry): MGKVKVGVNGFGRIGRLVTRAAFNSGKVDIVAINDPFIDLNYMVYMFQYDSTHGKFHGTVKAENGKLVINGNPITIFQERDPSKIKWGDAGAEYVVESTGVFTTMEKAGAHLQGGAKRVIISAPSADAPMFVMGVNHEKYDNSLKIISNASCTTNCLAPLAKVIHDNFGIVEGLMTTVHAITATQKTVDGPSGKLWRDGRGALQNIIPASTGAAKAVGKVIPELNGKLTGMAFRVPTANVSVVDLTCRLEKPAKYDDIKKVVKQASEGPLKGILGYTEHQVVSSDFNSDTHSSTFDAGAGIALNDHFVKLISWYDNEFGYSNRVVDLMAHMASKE

For the substance “recombinant human GAPDH (glyceraldehyde-3-phosphate dehydrogenase) (from UniProt P04406 1-335) (enzyme)”, the negative logarithm of the Kd (pKd) is 7.21.

The record behind these values is paper PMC10911789.
